Consider 80 sequences from the supplement of paper PMC10724198.

± gives the standard deviation of the averaged measurements.
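Note: PSI is a weighted mean of sequencing reads over stability bins, variants kept only with over 10 reads, mCherry proximal and sfGFP distal, peptide attached via GGGS linker.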

The data set has as its system Saccharomyces cerevisiae. The data set is described as follows: protein stability index of tFT-peptide fusion (C-terminal peptide) (PSI (0-1 scale)); higher = more stable (slower turnover). Particulars: genetic background: wild type; temperature: 30 C.
The sequence SVPTPSSNPRVK registered a protein stability index of 0.698 ± 0.05.
SVQIKKIRRKNN displayed a protein stability index of 0.6227 ± 0.0037.
In turn, SVRDRCKENERF gave a protein stability index of 0.658 ± 0.043.
In the case of SVRGMFPSAGVS, the protein stability index worked out at 0.6934 ± 0.00093.
Regarding SVSDPLPPRQTV, the protein stability index was found to be 0.721 ± 0.057.
For SVSEIGYEIRSL, the protein stability index is 0.739 ± 0.068.
Take SVSLSLLFFLPF: the protein stability index came out at 0.675 ± 0.025.
Sequence SVTLVPPPLPFP came in with a protein stability index of 0.677 ± 0.054.
SVVGNYHQTEPV showed a protein stability index of 0.702 ± 0.059.
Turning to SVYTTGHTHTGR, the protein stability index is 0.626 ± 0.17.
Regarding SWALELARPGEG, the protein stability index turned out to be 0.718 ± 0.013.
SWFLLEVLSDFK yielded a protein stability index of 0.649 ± 0.014.
As to SWFVGFDGAVGG, the protein stability index came out at 0.774 ± 0.088.
In turn, SWGGELGATSGG had a protein stability index of 0.708 ± 0.024.
Sequence SWGGLGSFCRVI yielded a protein stability index of 0.684 ± 0.014.
As to SWGRYSYIEVMR, the protein stability index came out at 0.7022 ± 0.0057.
In turn, SWKFAFWCFLGR had a protein stability index of 0.5675 ± 0.0056.
On to SWPIWGSCGWRR, for which the protein stability index worked out at 0.739 ± 0.11.
SWSLIFFGYFPF: the protein stability index turned out to be 0.591 ± 0.029.
For SYFVSGADSLIL, the protein stability index was 0.635 ± 0.017.
SYGDPSTTRLSP displayed a protein stability index of 0.701 ± 0.063.
On to SYGPSGEFSFSF, for which the protein stability index came to 0.702 ± 0.0075.
In the case of SYHRAAPFQSCD, the protein stability index is 0.8 ± 0.12.
On to SYPLSRPCSPCD, for which the protein stability index came out at 0.677 ± 0.068.
With SYRGIGVGLCAG, the protein stability index came to 0.622 ± 0.016.
For SYTLSGYGSRDN the value was 0.698 ± 0.018.
On to TAAEECIGRAIG, for which the protein stability index came out at 0.671 ± 0.04.
On to TAAHRASGEIAC, for which the protein stability index came out at 0.684 ± 0.062.
As for TAGVQSGCTRII, the protein stability index turned out to be 0.618 ± 0.052.
Regarding TAHHTRPQYLPL, the protein stability index was 0.622 ± 0.022.
On to TAKVYEKEGGEE, for which the protein stability index was determined as 0.671 ± 0.019.
The sequence TAPPSISYVQAF gave a protein stability index of 0.639 ± 0.021.
In turn, TARGAAARSSQL registered a protein stability index of 0.747 ± 0.071.
TASRSSRADERA gave a protein stability index of 0.591 ± 0.033.
Turning to TCFYYVGGEKCM, the protein stability index was found to be 0.665 ± 0.0077.
For the sequence TCLGYKLHPARG, the protein stability index was found to be 0.718 ± 0.031.
In the case of TCVASLSVLCLL, the protein stability index worked out at 0.574 ± 0.048.
For TDHTNCARDLGA the value was 0.664 ± 0.054; for TDSRPKVGKRGN, 0.6583 ± 0.0025; for TDWLMQRILRPF, 0.718 ± 0.028.
For TEGGKIEGGGRK the value was 0.682 ± 0.087; for TEINEAQNIPEK, 0.6688 ± 0.0027.
For TEKRMIINIKIK the value was 0.735 ± 0.03; for TERPPRRPKSQG, 0.715 ± 0.038.
In turn, TFLGEAGSVGVT returned a protein stability index of 0.646 ± 0.03.
TFSFSRPPLPPA: the protein stability index was found to be 0.6853 ± 0.0066.
Sequence TFSPRLRPPPPP gave a protein stability index of 0.7078 ± 0.0041.
The sequence TFTESRLRMRLG showed a protein stability index of 0.623 ± 0.086.
The sequence TFVSPPPHPLRP displayed a protein stability index of 0.636 ± 0.055.
For TGIGCRFIWCSK the value was 0.65 ± 0.037; for TGLRLFGVLSLI, 0.607 ± 0.016.
In the case of TGPGCWVCCVGE, the protein stability index amounted to 0.648 ± 0.048.
The sequence TGSGQVSREERS had a protein stability index of 0.671 ± 0.036.
Sequence TGVRSAEAKRKQ showed a protein stability index of 0.579 ± 0.05.
For THPRPTLTRCST, the protein stability index amounted to 0.734 ± 0.081.
In turn, THPTCPLHLLPT registered a protein stability index of 0.699 ± 0.039.
For THSQPPQYSRVP, the protein stability index turned out to be 0.638 ± 0.071.
In turn, THTPPPHRPSNR showed a protein stability index of 0.682 ± 0.22.
Turning to TICRKPTLMSPQ, the protein stability index is 0.775 ± 0.061.
TICVILNGVGYS came in with a protein stability index of 0.625 ± 0.11.
TIGPSYLLPDSF: the protein stability index was found to be 0.784 ± 0.018.
Regarding TINSHNYKTKTP, the protein stability index amounted to 0.664 ± 0.021.
Regarding TIPPSTRAITPV, the protein stability index was 0.652 ± 0.046.
TIRKNKTDVISK had a protein stability index of 0.667 ± 0.017.
The sequence TISHYSLAPTQI yielded a protein stability index of 0.695 ± 0.02.
TITRIAFRFCYS came in with a protein stability index of 0.556 ± 0.032.
Sequence TIVFLLPSPRSY had a protein stability index of 0.657 ± 0.0094.
Sequence TKKSKRKREQAE yielded a protein stability index of 0.68 ± 0.026.
In turn, TKRGQMLYQDKE registered a protein stability index of 0.741 ± 0.1.
On to TKRIKEERTKKC, for which the protein stability index was found to be 0.65 ± 0.025.
For TKRQKQKKKNKE the value was 0.696 ± 0.071.
TKTIKPNKKATV gave a protein stability index of 0.655 ± 0.03.
TLFLFVSSFCMG: the protein stability index is 0.47 ± 0.067.
In the case of TLFQGHQLFKSR, the protein stability index is 0.737 ± 0.0068.
TLLTIALLTGNL displayed a protein stability index of 0.606 ± 0.063.
TLNSSPFTTPTI showed a protein stability index of 0.717 ± 0.074.
For TLPFLYILDFFF the value was 0.589 ± 0.0081.
TLPPSPTPPLYP: the protein stability index was 0.773 ± 0.031.
As to TLPSHPRLLSLH, the protein stability index came out at 0.6965 ± 0.0013.
For TLPSPPPRPPPA the value was 0.702 ± 0.061.
